Measured values reported in doi:10.1101/2023.07.13.548819, “Trafficking Machinery is Rapidly Primed to Facilitate Polarised IL-6 Secretion in Dendritic Cells” (bioRxiv, 2023).

Target: T1, cytosolic fragment of human STX4 (residues 1-271 with 272C) (human, UniProt Q12846 1-271)
T1 construct: human STX4 lacking the transmembrane domain, residues 1-271; synthetic gene in NdeI/XhoI of pET28a(+); cysteine at position 272 ('residues 1-271 with 272C')
T1 chain: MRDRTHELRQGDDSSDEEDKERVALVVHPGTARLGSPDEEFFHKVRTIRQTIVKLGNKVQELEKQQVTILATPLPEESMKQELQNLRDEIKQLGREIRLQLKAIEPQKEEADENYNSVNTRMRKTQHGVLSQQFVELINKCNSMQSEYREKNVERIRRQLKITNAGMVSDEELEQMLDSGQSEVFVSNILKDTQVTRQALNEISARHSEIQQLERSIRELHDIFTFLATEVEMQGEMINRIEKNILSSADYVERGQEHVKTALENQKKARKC
Experiment: SEC; 100 mM (so in the source) of each protein mixed, overnight at RT; ENrich SEC 70 column in 20 mM HEPES pH 7.4, 100 mM NaCl, 0.2 mM TCEP, 1% CHAPS
Conditions: both partners purified

- binding result: binds
B1: VAMP2(49-96) (domain or fragment, UniProt P63045 49-96, looked up)
chain: NVDKVLERDQKLSELDDRADALQAGASQFETSAAKLKRKYWWKNLKMM
notes: VAMP2, C-terminal half of the SNARE motif, residues 49-96; construct described previously (Pobbati, Stein and Fasshauer, 2006); that fragment is, as far as I recall, from rat; also called C-terminal half of the SNARE motif of VAMP2 (residues 49-96)
